Laboratory results: the supplement of paper PMC9732359
± gives the uncertainty stated by the source.

Assay: protein stability index of a GFP-peptide fusion (yeast GPS) (PSI 1-4); higher = more stable; sorted into four equal gates, so the index is relative within each strain
Procedure, shortened: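 Plasmids isolated from each sorting gate were PCR-amplified and Illumina-sequenced, and barcodes assigned the reads to strains. The gates, four of equal size, were set by GFP/Cherry fluorescence ratio on mid-log cultures in leucine-free medium. These cultures were yeast carrying a pooled library of tiled 17-residue yeast protein peptides fused downstream of GFP on a plasmid that also expresses Cherry. The protein stability index is the sum of every gate's read frequency times its gate number.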

Row | Sequence | protein stability index (doa10∆) | protein stability index (pdr5∆) | protein stability index (san1∆) | protein stability index (ubr1∆)
1 | TKEQYAAESKKYRQTKL [RPL5] | 3.17 ± 0.14 | 3.28 ± 0.18 | 3.37 ± 0.094 | 3.12 ± 0.1
2 | TKLHSGDYGEEEDADQE [SRB8] | 2.5 ± 0.16 | 2.58 ± 0.12 | – | 2.38 ± 0.2
3 | TKMDGHARGGGAISAVA [SRP54] | – | – | 3.51 ± 0.14 | 3.62 ± 0.26
4 | TKNNTQASGITAGAAAN [SSN3] | 1.86 ± 0.094 | 2.08 ± 0.051 | 2.07 ± 0.11 | 1.97 ± 0.062
5 | TKSETKQENETMQPPYI [MED11] | 2.95 ± 0.051 | 2.85 ± 0.059 | 2.7 ± 0.1 | 2.96 ± 0.042
6 | TKSPAYPMMHQVRNQVF [RGR1] | 1.78 ± 0.047 | 1.88 ± 0.054 | 1.8 ± 0.077 | 2.23 ± 0.047
7 | TKYSDVLGFLQLFHNLI [YJL039C/NUP192] | 2.75 ± 0.063 | 2.65 ± 0.062 | 2.86 ± 0.048 | 2.94 ± 0.049
8 | TKYTDDMATGSNDTTAF [SRB8] | 3.04 ± 0.086 | 3.14 ± 0.087 | 3.45 ± 0.057 | 3.29 ± 0.058
9 | TLDNIDDINKAKAVWEN [ARP9] | 3.14 ± 0.058 | 3.18 ± 0.062 | 3.29 ± 0.051 | 3.27 ± 0.058
10 | TLDNPLLVDKDANGVSL [YJL039C/NUP192] | 3.17 ± 0.057 | 3.12 ± 0.048 | 3.08 ± 0.038 | 3.13 ± 0.035
11 | TLDREYITLKATFLKDD [QCR2] | 1.38 ± 0.065 | 1.44 ± 0.045 | 1.51 ± 0.1 | 1.5 ± 0.048
12 | TLETIEIHPITFPPEVL [RRP43] | 1.9 ± 0.045 | 2.25 ± 0.045 | 2.3 ± 0.06 | 2.01 ± 0.035
13 | TLISRISSLFTITTILI [YML103C/NUP188] | 1.63 ± 0.068 | 1.8 ± 0.066 | 1.37 ± 0.088 | 2.02 ± 0.11
14 | TLKYICAECSSKLSLSR [RPC10] | 2.46 ± 0.063 | 2.51 ± 0.069 | 2.7 ± 0.057 | 2.65 ± 0.056
15 | TLNNIFRFDSIQRETLL [GRR1] | 2.88 ± 0.075 | 2.59 ± 0.081 | 2.75 ± 0.052 | 3.1 ± 0.04
16 | TLRTISFKGSPNERKAK [SNF2] | 3.19 ± 0.17 | – | 2.74 ± 0.15 | 2.51 ± 0.13
17 | TMLITGQRPDRATTYEK [SIN4] | 3.06 ± 0.11 | 3.09 ± 0.15 | 3.25 ± 0.07 | 3.22 ± 0.05
18 | TMMANFEEWIKMATDNK [BRN1] | 3.19 ± 0.12 | 3.16 ± 0.11 | 3.08 ± 0.1 | 3.35 ± 0.1
19 | TNAFLDSLTRAVKDQQK [SNF2] | 2.46 ± 0.072 | 2.47 ± 0.071 | 2.68 ± 0.049 | 2.56 ± 0.046
20 | TNAPLRTLNIQPEVAVK [YIL149C/MLP2] | 2.08 ± 0.051 | 2.03 ± 0.048 | 1.65 ± 0.096 | 2.23 ± 0.042
21 | TNKENNIVDSSAAGNKA [YIL149C/MLP2] | 2.18 ± 0.061 | 2.44 ± 0.057 | 2.87 ± 0.041 | 2.92 ± 0.036
22 | TNLKNHPAYLFKGLETP [YLR018C/POM34] | 2.38 ± 0.055 | 2.51 ± 0.039 | 1.59 ± 0.061 | 2.36 ± 0.028
23 | TNNDSNNKNNSITTGND [MED2] | 2.69 ± 0.1 | 2.64 ± 0.057 | 2.7 ± 0.081 | 1.87 ± 0.043
24 | TNNGNDDNETENPNFWR [GRR1] | 2.74 ± 0.066 | 3.16 ± 0.05 | 2.37 ± 0.053 | 2.75 ± 0.041
25 | TNNTIRYNAKRRNWRRT [RPL39] | – | 3.02 ± 0.22 | – | 3.58 ± 0.14

Row | Sequence | protein stability index (doa10∆) | protein stability index (pdr5∆) | protein stability index (san1∆) | protein stability index (ubr1∆)
26 | TNQLKSLKGLQSKLKDV [RPN8] | – | 1.59 ± 0.23 | 2.62 ± 0.19 | 1.36 ± 0.13
27 | TNSEDKLSKVQLYEDLC [MED4] | 3.04 ± 0.083 | 3.22 ± 0.091 | 3.09 ± 0.081 | 2.74 ± 0.059
28 | TNSHYNNTNTDNVSGLT [SNF2] | 3.19 ± 0.062 | 3.31 ± 0.046 | 3.37 ± 0.044 | 3.25 ± 0.034
29 | TNVIAFAFWNLLVKFIK [YLR018C/POM34] | 1.42 ± 0.092 | 1.39 ± 0.084 | 1.29 ± 0.16 | 1.48 ± 0.042
30 | TNVNPSKNFNVILASSL [YML103C/NUP188] | 1.82 ± 0.05 | 2.16 ± 0.048 | 1.99 ± 0.08 | 1.91 ± 0.045
31 | TNWARTTFRNEYGKHDF [MED8] | 2.82 ± 0.097 | 2.56 ± 0.079 | 2.91 ± 0.088 | 3.55 ± 0.19
32 | TNYEMSYWQKSYFKNSV [LIN1] | 2.07 ± 0.038 | 2.09 ± 0.036 | 2.09 ± 0.061 | 1.99 ± 0.037
33 | TPKYRLVVRFTNKDIIC [RPL5] | 1.75 ± 0.078 | 1.64 ± 0.11 | 1.17 ± 0.2 | 1.36 ± 0.071
34 | TPLFHALAEGHGDAAVL [NAS6] | – | 3.1 ± 0.1 | 3.07 ± 0.091 | 2.61 ± 0.12
35 | TPLTFALPRGARTATVS [RPL14A] | 1.55 ± 0.063 | 1.5 ± 0.061 | 1.4 ± 0.1 | 1.57 ± 0.049
36 | TPMGGFVHYGEIKNDFI [RPL3] | 3.32 ± 0.093 | 3.19 ± 0.092 | 3.27 ± 0.12 | 3.28 ± 0.078
37 | TPNVNVLVLHGDKDTRA [ISW2] | 2.63 ± 0.05 | 2.36 ± 0.05 | 2.32 ± 0.08 | 2.81 ± 0.05
38 | TPQSKGFVRNSFFSGLS [RPO31] | 3.01 ± 0.089 | 2.79 ± 0.074 | 3.13 ± 0.089 | 2.86 ± 0.046
39 | TPSLPIAPPVAPHDSEA [SNF5] | 2.6 ± 0.07 | 2.48 ± 0.074 | 3.23 ± 0.064 | 2.52 ± 0.066
40 | TPSSDQNPLPTRFEVEL [SOH1] | 3.35 ± 0.088 | 3.1 ± 0.061 | 2.65 ± 0.075 | 3.19 ± 0.049
41 | TPTHSDSHEDMKRRRLE [ROX3] | 2.89 ± 0.15 | 3.33 ± 0.15 | 3.14 ± 0.18 | 3.14 ± 0.091
42 | TQDVFLKDFNTERVVEI [FAS2] | 3.116 ± 0.026 | 3.205 ± 0.023 | 3.211 ± 0.021 | 3.093 ± 0.019
43 | TQEQFVKRRRDMLEHIN [SRB4] | – | 2.06 ± 0.27 | – | 1.26 ± 0.089
44 | TQQQPGAPGANARMPGM [SRP54] | 3.1 ± 0.12 | 2.89 ± 0.096 | 2.89 ± 0.25 | 2.7 ± 0.084
45 | TQQSHEQQPEQPQETEE [RPT4] | 2.9 ± 0.056 | 3.16 ± 0.058 | 2.99 ± 0.056 | 2.98 ± 0.047
46 | TQTEELKFMAASEVATH [PRP8] | 2.38 ± 0.084 | 2.48 ± 0.08 | 2.35 ± 0.081 | 2.66 ± 0.066
47 | TQTGLLQDLEEAKSFQD [RPC82] | 2.27 ± 0.25 | 2.46 ± 0.12 | 2.13 ± 0.14 | 2.59 ± 0.11
48 | TQYATSQKTKTIQSDLN [SMC2] | 2.21 ± 0.088 | 2.34 ± 0.072 | 2.1 ± 0.11 | 2.85 ± 0.05
49 | TRASKVLEQLSGQTPVQ [RPL11A] | – | 3.01 ± 0.12 | 2.84 ± 0.074 | 3.06 ± 0.077
